Consider 1 molecule from patent publication US20190106498A1, “TREATMENT FOR ACUTE MYELOID LEUKEMIA” (priority 2017, published 2019).

Data set [1] concerns soluble CD27. As to the kind of experiment: Serum soluble CD27 ELISA in patients. The format is in vivo, human. The following applies: representative patient. As to the method: FIG. 10 The serum samples were analysed using an ELISA (Duoset ELISA, human CD27/TNFRSF7 (cat: DY382-05, R&D Systems). Concentration of soluble CD27 in the sample is calculated from a calibration curve. The method allows measurement of the serum concentration of natural human soluble CD27 by means of a sandwich ELISA method. Goat Anti-Human CD27 Capture antibody is coated on a microplate and nonspecific binding sites are blocked. Human serum samples are applied and bound human soluble CD27 is detected and visualized by the subsequent additions of Biotinylated Goat Anti-Human CD27 Detection antibody, Streptavidin-HRP and the mixture of the colour reagent H2O2 and the chromogenic substrate tetramethylbenzidine (TMB).
To assess the effect of anti-CD70 monotherapy and combination therapy on the CD27/CD70 interaction as well as to further explore the effect on blast percentage and stemness, patients' soluble CD27 levels were also measured.
(An ELISA detects its analyte on a solid surface through an enzyme-linked reagent.)

Data set [2] relates to Numb. As to the kind of experiment: Numb expression in purified AML blasts of patients. The following applies: monotherapy at C1D1; combination at C4D1. The format is in vivo, human. As to the method:
FIGS. 8A-8B Purified AML blasts (FACS gate: CD45^dim SSC^low AV^−CD4^−CD8^−CD19^−) were fixed, permeabilized and cells incubated overnight with α-Numb antibody, followed by staining with a fluorescently labeled secondary antibody. DAPI was used to counterstain for DNA. Samples were acquired on an ImageStreamX® Mark II imaging flow cytometer (Amnis/EMD Millipore) and analyzed using INSPIRE™ and IDEAS® software (Amnis/EMD Millipore). FIG. 8A) Total Numb expression (Mean fluorescence intensity) was determined across the slide for bone marrow samples of one patient harvested at baseline (“screening”), after ARGX-110 monotherapy (C1D1) and after combination treatment (C4D1). FIG. 8B) Symmetrically (SD) and asymmetrically dividing (AD) cells were scored for a bone marrow patient sample at baseline (“before”) and after ARGX-110 monotherapy (after αCD70).
The level of asymmetric division in a population of LSCs can be determined by measuring the level of a cell fate determinant such as the Numb protein (Riether et al., J Exp Med. 2017 February; 214(2): 359-380, incorporated herein by reference). Increased Numb expression is indicative of an increase in asymmetric division and therefore an increase in myeloid differentiation and decreased LSC populations.

Data set [3] has as its target T1, CD70 (Homo sapiens, UniProt P32970).
T1 sequence (P32970 1-193): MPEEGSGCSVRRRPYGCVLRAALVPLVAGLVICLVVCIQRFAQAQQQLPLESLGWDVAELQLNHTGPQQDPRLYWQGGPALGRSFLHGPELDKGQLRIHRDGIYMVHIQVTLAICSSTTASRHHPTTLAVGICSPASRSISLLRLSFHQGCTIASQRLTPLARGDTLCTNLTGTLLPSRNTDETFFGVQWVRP
The following applies: cited from earlier work.

Data set [4] relates to human AML cells. As to the kind of experiment: αCD70/decitabine treatment of AML patient-derived xenografts in NSG mice. It counts as in vivo. Conditions: αCD70 10 mg/kg, decitabine 1.5 mg/kg/d, 5 days. As to the method:
FIGS. 1A-1I αCD70/decitabine combination therapy eradicates human CD34^+CD38^- AML stem/progenitor cells in murine xenografts. 5×10^6 FACS-purified […] cells from BM of newly diagnosed AML patients (patient […]) were injected intravenously into the tail vein of sub-lethally irradiated NSG mice. After engraftment (day 32 (P10) and day 97 (P25) after transplantation), mice were randomized and subjected to treatment with control mAb and 10 mg/kg αCD70 mAb (41D12-D) intraperitoneally (total of 3 injections) or decitabine and (1.5 mg/kg/day) for five consecutive days alone or in combination. One day after the last treatment, animals were sacrificed and blood, spleen and BM were analyzed. (FIG. 1A) Experimental setup. (FIG. 1B) CD70 expression on CD34^+CD38^- AML stem/progenitor cells. Isotype is depicted in grey; CD70 staining in black (P10) and blue (P25). […] (FIG. 1G) Representative FACS plots and (FIG. 1H) quantification indicating the frequency of CD38^- AML cells within […]^loin^-CD90^-CD34+ AML stem/progenitor cell population. […] 32 days after engraftment (engraftment in PB: 14.45+/-0.95%), NSG mice were randomized to treatment with vehicle (Veh), αCD70 mAb (αCD70, ARGX-110, 10 mg/kg), decitabine (D, 1.5 mg/kg/d) or the combination (αCD70/D) for 5 days and bone marrow, spleen and blood were analyzed.
For orientation: In xenograft studies the graft and the host belong to different species.

A short description of data set [5]: Phase I/II trial: peripheral blood counts. The format is in vivo, human. From the text: By C2D17, the percentage of blasts in peripheral blood was 0.8% by flow cytometry and 0% by cell morphology.
Patient 1001003 is a person with AML with myelodysplasia-related changes by WHO classification (AML-M2 by FAB classification) and 24% bone marrow blasts. […] Blast percentage at C1D1 was stable.

Where [6] appears, read: patient 1001002, 1 mg/kg with AZA, C3D17.
Setting [7] is: patient 1001003, with AZA, C2D1.

B1: ARGX-110: IgG1 anti-CD70 antibody with defucosylated Fc region; VH SEQ ID NO: 4, VL SEQ ID NO: 8 (antibody, V domains shown)
VH: EVQLVESGGGLVQPGGSLRLSCAASGFTFSVYYMNWVRQAPGKGLEWVSDINNEGGTTYYADSVKGRFTISRDNSKNSLYLQMNSLRAEDTAVYYCARDAGYSNHVPIFDSWGQGTLVTVSS
VL: QAVVTQEPSLTVSPGGTVTLTCGLKSGSVTSDNFPTWYQQTPGQAPRLLIYNTNTRHSGVPDRFSGSILGNKAALTITGAQADDEAEYFCALFISNPSVEFGGGTQLTVLG
modifications: IgG1, defucosylated Fc; Custom antibody fragment
In the case of B1, the “sCD27 levels after the end of treatment (EOT)” value in data set [1] is “rise after the end of treatment”. In data set [1] (monotherapy C1D1 vs Loading, then combination therapy), the sCD27 levels entry is recorded as “reduces sCD27 levels compared to before treatment”. Moreover, in data set [2], the Numb expression result was “increased”. Also, in data set [3], the “CD70-induced CD27 signalling” value is recorded as “inhibit CD70-induced CD27 signalling” and the “interaction of CD70 with CD27” value is reported as “inhibit the interaction of CD70 with its receptor CD27”. Besides, in data set [4], the “number of CD34+CD38− and CD34+CD45− cells (LSCs)” value was “reduced both the number of CD34+CD38− cells and of CD34+CD45− cells”; the “total engraftment in the bone marrow, spleen and blood” value is reported as “reduced total engraftment”. Further, in data set [5] (setting [6]), the Hb came out at 10.2 g/dL, the “absolute neutrophil count (ANC)” value is listed as 0.97 G/L and the platelets came out at 128 G/L. Also, in data set [5] (setting [7]), the ANC was found to be 0.38 G/L, the Hb amounted to 9.2 g/dL and the platelets came to 98 G/L.
